This note sets out measurements from patent US20230365705A1 (DYNAMICURE BIOTECHNOLOGY, published 2023).

Test [1] deals with T1, Human CD93 on cells (human CD93 expressing CHO cells; HUVEC, U937 and KG1a cells) (human, UniProt Q9NPY3 22-652).
T1 construct: whole, on cells; also called hCD93 expressing CHO cells; hCD93 CHO cells
T1 sequence (looked up): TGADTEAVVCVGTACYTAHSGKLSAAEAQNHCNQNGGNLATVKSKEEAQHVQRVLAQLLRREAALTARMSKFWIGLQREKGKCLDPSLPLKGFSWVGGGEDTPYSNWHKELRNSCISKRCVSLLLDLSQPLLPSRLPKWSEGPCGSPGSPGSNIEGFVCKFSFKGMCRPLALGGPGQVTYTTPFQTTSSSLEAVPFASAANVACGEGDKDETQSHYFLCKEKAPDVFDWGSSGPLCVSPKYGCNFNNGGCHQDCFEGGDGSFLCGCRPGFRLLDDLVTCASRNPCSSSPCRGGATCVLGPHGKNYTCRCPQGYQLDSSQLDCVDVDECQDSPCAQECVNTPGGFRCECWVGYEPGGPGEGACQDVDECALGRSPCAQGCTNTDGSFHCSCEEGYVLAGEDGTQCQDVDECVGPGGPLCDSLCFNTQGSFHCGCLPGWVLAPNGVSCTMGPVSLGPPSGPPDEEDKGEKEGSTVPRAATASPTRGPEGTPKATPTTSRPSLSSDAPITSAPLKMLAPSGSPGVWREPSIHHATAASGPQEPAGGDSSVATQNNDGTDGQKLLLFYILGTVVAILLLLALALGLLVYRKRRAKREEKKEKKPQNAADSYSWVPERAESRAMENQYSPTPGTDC
In words: flow cytometry titration, CHO-hCD93 cells; antibody stored 2 weeks at 40 C. On the procedure:
Human CD93 expressing CHO cells were detached by incubation with TrypLE reagents (Thermo Fisher), which preserves the integrity of CD93 on the cell surface. Then the cells were incubated with serial diluted anti-CD93 antibodies for 30 minutes in 4° C. After washing by FACS buffer, the cells were incubated with Alexa Fluor 647 conjugated anti-human IgG (Jackson ImmunoResearch) for 30 minutes at 4° C. After washing by FACS buffer twice, the samples were acquired in NovoCyte Flow Cytometer and analyzed by NovoExpress software.

In test [2] the target is T2, Human CD93 recombinant protein (Sino Biological Inc, Catalog #12589-H08H) (human, UniProt Q9NPY3 22-580).
T2 construct: Biotinylated (EZ-LINK NHS-PEG4 biotin) in the BLI assays; also called hCD93; His-tagged human CD93
T2 sequence (looked up): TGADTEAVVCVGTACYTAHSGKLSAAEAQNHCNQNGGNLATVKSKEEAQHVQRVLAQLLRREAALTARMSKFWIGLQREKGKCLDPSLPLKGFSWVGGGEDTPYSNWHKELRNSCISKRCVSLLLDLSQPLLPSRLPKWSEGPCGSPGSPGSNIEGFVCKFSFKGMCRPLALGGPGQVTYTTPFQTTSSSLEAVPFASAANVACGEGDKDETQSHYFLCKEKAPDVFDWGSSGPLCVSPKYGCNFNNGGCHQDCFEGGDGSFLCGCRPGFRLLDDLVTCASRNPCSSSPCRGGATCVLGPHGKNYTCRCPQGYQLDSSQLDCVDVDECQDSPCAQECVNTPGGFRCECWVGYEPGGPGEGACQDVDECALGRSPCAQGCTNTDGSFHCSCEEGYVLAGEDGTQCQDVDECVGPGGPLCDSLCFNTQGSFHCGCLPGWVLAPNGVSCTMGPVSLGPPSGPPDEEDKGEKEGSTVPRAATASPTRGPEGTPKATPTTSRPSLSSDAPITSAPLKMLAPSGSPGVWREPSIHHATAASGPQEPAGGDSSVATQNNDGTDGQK
In words: summary table, column ELISA (hCD93); 4 weeks at 40 C. On the procedure: (§1) His-tagged human CD93 was coated onto a 96 well plate at 1 μg/mL in 1×PBS overnight at 4° C. The plate was washed with ELISA wash buffer (Boston BioProduct, Inc.) and the wells were blocked with ELISA blocking buffer for 1 hour at 37° C. […] The plate was washed with ELISA wash Buffer. HRP-conjugated anti-human Fc antibody was incubated for 1 hour at 37° C. The plate was washed with ELISA wash Buffer. HRP substrate was added for indirect detection of the antibodies binding to CD93.
as §1

The target of test [3] is T2, Human CD93 recombinant protein (Sino …). The test is described as follows: BLI (Octet QKe), biotinylated human CD93 on streptavidin biosensors. The method, then: (§2) The binding affinity of anti-CD93 antibodies was determined with bio-layer interferometry using Octet QKe (Fortebio). […] Human CD93 recombinant protein (Sino Biological Inc, Catalog #12589-H08H) was biotinylated using EZ-LINK NHS-PEG4 biotin (Thermo Fisher Scientific). Streptavidin biosensors (Fortebio) were used to load biotinylated CD93 protein (300 seconds in 5 μg/ml). Baseline was stabilized for 60 seconds in 1×kinetics buffer (Fortebio) before anti-CD93 antibodies, at a serial dilution, were allowed to associate for 300 seconds with captured protein. Then the sensors were dissociated in 1× kinetics buffer for 600 seconds. […] (FIG. 41).

Test [4] concerns the target T1, Human CD93 on cells (human CD93 …). The test is described as follows: summary table, column FACS (KG1a cells). On the procedure:
(§3) KG1a cells were detached by incubation with TrypLE reagents (Thermo Fisher), which preserves the integrity of CD93 on the cell surface. Then the cells were incubated with serial diluted anti-CD93 antibodies for 30 minutes at 4° C. After washing by FACS buffer, the cells were incubated with Alexa Fluor 647 conjugated anti-human IgG (Jackson ImmunoResearch) for 30 minutes in 4° C. After washing by FACS buffer twice, the samples were acquired in NovoCyte Flow Cytometer and analyzed by NovoExpress software.
as §3

Test [5] has as its target T2, Human CD93 recombinant protein (Sino …). In words: BLI (Octet QKe), biotinylated human CD93 on streptavidin biosensors; antibody stored 2 weeks at 40 C. On the procedure:
as §2

Test [6] deals with T1, Human CD93 on cells (human CD93 …). In words: summary table, column FACS (CHO-hCD93 cells); 2 weeks at 40 C.
Test [7] deals with T2, Human CD93 recombinant protein (Sino …). In words: ELISA, His-tagged human CD93 coated, OD450; antibody stored 2 weeks at 40 C. The method, then: as §1

B1: h7F3 (humanized 7F3, VH3+VL3) (antibody, human IgG1, V domains shown)
VH: QVQLVQSGAEVKKPGASVKVSCKASGYTFTDYEMHWVRQAPGQGLEWMGGIDPETGDTAYNQNFKGRVTMTTDTSTSTAYMELRSLTSDDTAVYYCTNYGNLYYYAMDYWGQGTSVTVSS
VL: EIVLTQSPSSLSASVGDRVTITCRASSSVSSSYLHWYQQKPGKAPKLLIYSTSNLAFGVPSRFSGSGSGTSYTFTISSLQPEDIATYYCQQYSGYPLTFGSGTKLEIK
notes: also called humanized 7F3-hIgG1
For B1, the EC50 in test [1] came to 0.194 nM; in test [2] it was 0.0407 nM; in test [4], 0.024 nM; in test [6], 0.194 nM; in test [7] it was 0.0413 nM. Moreover, the Kd in test [3] was determined as 0.472 nM; in test [5] it was 0.495 nM. The values for the koff in test [3] and in test [5] were 0.000321 s⁻¹ and 0.000356 s⁻¹, respectively. The kon in test [3] turned out to be 681000 M⁻¹ s⁻¹; in test [5], 720000 M⁻¹ s⁻¹.

B2: h16E4 (humanized 16E4, VH4+VL6) (antibody, V domains shown)
VH: QVQLVQSGAEVKKPGASVKVSCKASGYTFTSYWMHWVRQAPGQGLEWMGEIDPSASYTYYNQKFKGRVTMTRDKSSSTVYMELSSLTSEDSAVYYCARSVYYGNKYFDVWGAGTTVTVSS
VL: DIQMTQSPSTLSASVGDRVTITCKASQSVDYAGDSYMNWYQQKPGKAPKLLIYAASNLESGVPSRFSGSGSGTEFTLTISSLQPDDFATYYCQQTNEDPRTFGGGTKLEIK
notes: Detected with anti-human IgG, so a human Fc
With B2, the concentration for a half-maximal effect (EC50) in test [2] came to 0.051 nM; in test [4] it was 0.131 nM; in test [6] it was 0.274 nM; in test [7], 0.049 nM.
